Conditions: Escherichia coli (strain K12); pH 9; 50 °C; Thermal; DSC; Sodium tetraborate 1 mM; reversible: yes; whole UniProt chain shown

B1: Tryptophan synthase alpha chain wild type, P0A877 (protein)
chain: MERYESLFAQLKERKEGAFVPFVTLGDPGIEQSLKIIDTLIEAGADALELGIPFSDPLADGPTIQNATLRAFAAGVTPAQCFEMLALIRQKHPTIPIGLLMYANLVFNKGIDEFYAQCEKVGVDSVLVADVPVEESAPFRQAALRHNVAPIFICPPNADDDLLRQIASYGRGYTYLLSRAGVTGAENRAALPLNHLVAKLKEYNAAPPLQGFGISAPDQVKAAIDAGAAGAISGSAIVKIIEQHINEPEKMLAALKVFVQPMKAATRS
- heat capacity change of unfolding: 4.81 kcal/mol/K
- unfolding free energy: 4.9 kJ/mol

— FireProtDB (doi:10.1093/protein/9.5.425)
